Our source for the stoichiometry N values is article PMC3043092.

Experiment [1] addresses Pisum sativum thioredoxin f (Pisum sativum). The experiment is described as follows: SEC; Superdex 75 HR 16/60, 1 ml/min, 25°C; 100 µl at 24 µM loaded; 50 mM buffer with 150 mM NaCl, pH >= 7.0; no reducing agent.
Experiment [2] deals with Pisum sativum thioredoxin h1 (Pisum sativum). The description is as above.

For orientation: stoichiometry N means the number of molecules, sites or subunits per partner or assembly. As for “Pisum sativum thioredoxin f (natural protein)”, the stoichiometry N in experiment [1] is 2.
In experiment [2], “Pisum sativum thioredoxin h1 (natural protein)” displayed a stoichiometry N of 2.
